Consider 2 molecules from patent publication US9988424 (DUKE UNIVERSITY, dated 2018).

In experiment [1] the target is T1, AE.A244 gD+ gp120 (HIV-1).
T1 construct: domain: gp120; also called AE.A244 gp120gD+
Nature of the experiment: ELISA.

The target in experiment [2] is T2, AE.97CNG2XF gp140CF (HIV-1).
T2 construct: also called E.97CNGX2F gp140CF
Nature of the experiment: ELISA. Background: ELISA stands for enzyme-linked immunosorbent assay.

The target in experiment [3] is C.1086 gp120 (HIV-1). Description: ELISA.
Experiment [4] concerns the target T3, A.9004SS V1/V2 tags.
T3 V1V2 tags construct: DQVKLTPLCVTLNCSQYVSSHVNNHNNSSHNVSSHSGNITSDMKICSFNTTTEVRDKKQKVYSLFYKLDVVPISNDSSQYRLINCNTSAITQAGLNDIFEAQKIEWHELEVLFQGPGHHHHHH
Nature of the experiment: ELISA, OD405 at 10 ug/ml.

The target of experiment [5] is AE.con gp140CF. Nature of the experiment: ELISA, OD405 at 10 ug/ml.
In experiment [6] the target is T4, B.62357 gp140C.
T4 construct: also called B.62357 140C
Description: ELISA, OD405 at 10 ug/ml.

The target in experiment [7] is B.63521_V1/V2 tags. Nature of the experiment: ELISA, OD405 at 10 ug/ml.
Experiment [8] addresses B.Case A2 V1/V2 tags. Nature of the experiment: ELISA, OD405 at 10 ug/ml.
In experiment [9] the target is B.con gp140CF. Nature of the experiment: ELISA, OD405 at 10 ug/ml.
Experiment [10] addresses T5, C.1086 gp140.
T5 construct: also called C.1086gp140C
Nature of the experiment: ELISA, OD405 at 10 ug/ml.

Experiment [11] has as its target Con 6 gp120. Description: ELISA, OD405 at 10 ug/ml.
The target in experiment [12] is G.con gp140CF. Nature of the experiment: ELISA, OD405 at 10 ug/ml.
For experiment [13], the target named is T6, AE.A244 gp120 delta 11 (HIV-1).
T6 construct: also called E.A244gp120Δ11; AE.A244 Δ11 gp120
Nature of the experiment: ELISA, OD405 at 10 ug/ml.

Experiment [14] has as its target C.CAP206 gp140CF.12 (HIV-1). Description: ELISA, OD405 at 10 ug/ml.
Experiment [15] deals with T7, gp70 B.CaseA2 V1/V2 (HIV-1 V1V2 on murine leukemia virus gp70).
T7 construct: also called B.gp70CaseA2 V1/V2; gp70 B.CaseAV1V2
T7 chain: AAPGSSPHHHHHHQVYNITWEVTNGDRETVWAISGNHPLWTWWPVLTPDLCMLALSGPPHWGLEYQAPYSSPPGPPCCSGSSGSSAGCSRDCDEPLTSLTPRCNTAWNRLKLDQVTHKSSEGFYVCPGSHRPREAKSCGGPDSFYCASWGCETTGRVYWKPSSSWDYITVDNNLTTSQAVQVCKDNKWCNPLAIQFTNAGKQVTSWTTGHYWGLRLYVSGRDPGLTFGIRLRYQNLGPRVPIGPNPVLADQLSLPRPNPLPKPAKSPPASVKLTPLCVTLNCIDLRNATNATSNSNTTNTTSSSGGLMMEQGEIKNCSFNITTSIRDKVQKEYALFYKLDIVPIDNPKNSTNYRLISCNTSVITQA
Description: ELISA, OD405 at 10 ug/ml.

Experiment [16] concerns the target C.1086 V1V2 Tags (HIV-1). Description: ELISA, OD405 at 10 ug/ml.
The target in experiment [17] is T8, gp70 C.1086 V1/V2 (HIV-1 V1V2 on murine leukemia virus gp70).
T8 construct: also called C.gp70 1086C V1V2; C.1086gp70V1V2
T8 chain: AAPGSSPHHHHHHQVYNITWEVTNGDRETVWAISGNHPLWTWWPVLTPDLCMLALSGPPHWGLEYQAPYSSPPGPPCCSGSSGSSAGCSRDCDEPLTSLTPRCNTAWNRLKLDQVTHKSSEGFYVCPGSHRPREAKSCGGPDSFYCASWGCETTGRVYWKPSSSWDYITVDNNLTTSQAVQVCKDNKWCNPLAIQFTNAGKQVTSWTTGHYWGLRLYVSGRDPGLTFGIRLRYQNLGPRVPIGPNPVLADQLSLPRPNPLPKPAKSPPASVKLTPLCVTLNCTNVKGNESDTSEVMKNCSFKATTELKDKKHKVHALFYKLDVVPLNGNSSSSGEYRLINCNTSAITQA
Description: ELISA, OD405 at 10 ug/ml.

Experiment [18] addresses T9, B.HXB/BAL gp140CFI (HIV-1, UniProt P04578 33-680).
T9 construct: also called B.HxB/Ba gp140 CFI
Description: ELISA, OD405 at 10 ug/ml.

The target of experiment [19] is B.9021 gp140C (HIV-1). Nature of the experiment: ELISA, OD405 at 10 ug/ml.
Experiment [20] has as its target T10, SIV CPZ US-1 gp140CF (SIVcpz).
T10 construct: also called US-1 SIVCPZ gp140CF
T10 chain: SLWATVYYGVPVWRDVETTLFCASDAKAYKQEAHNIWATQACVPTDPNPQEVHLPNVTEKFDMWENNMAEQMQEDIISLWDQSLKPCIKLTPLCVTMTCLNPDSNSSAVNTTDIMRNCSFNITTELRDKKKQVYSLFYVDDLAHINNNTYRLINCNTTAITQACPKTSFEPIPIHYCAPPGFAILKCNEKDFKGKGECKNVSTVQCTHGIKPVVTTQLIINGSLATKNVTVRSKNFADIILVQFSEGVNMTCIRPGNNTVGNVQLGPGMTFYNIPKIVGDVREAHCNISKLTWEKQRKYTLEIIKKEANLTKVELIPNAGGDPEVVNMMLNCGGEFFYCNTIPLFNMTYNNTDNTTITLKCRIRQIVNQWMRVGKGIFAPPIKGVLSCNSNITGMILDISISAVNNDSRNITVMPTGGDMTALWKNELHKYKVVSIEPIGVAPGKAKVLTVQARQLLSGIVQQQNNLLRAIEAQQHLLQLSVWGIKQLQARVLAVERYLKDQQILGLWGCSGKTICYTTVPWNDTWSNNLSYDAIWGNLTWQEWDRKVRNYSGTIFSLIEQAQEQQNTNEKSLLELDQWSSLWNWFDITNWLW
Nature of the experiment: ELISA, OD405 at 10 ug/ml.

B1: CH59 (antibody, V domains shown)
VH: EVQLVESGGGLVQPGRSLRLSCAASGFTFDDGAMHWVRQAPGKGLEWVSGISWNSNIIAYADSVKGRFTISRDNAKNSLYLEMNSLRVEDTALYYCAKDSPRGELPLNYWGQGTLVTVSS
VL: SYELTQPPSVSVSPGQTARITCSGDALPKNYAYWYQQKSGQAPVLVIYEDSKRPSGIPERFSGSSSGTMATLTISGAQVEDEADYYCYSTDSSGNHRVFGGGTKLTVL
notes: also called mAb CH59
Consider B1, for which the EC50 in experiment [1] was 0.01 mg/L; in [2] it was 0.066 mg/L; in experiment [3] it was 0.02 mg/L.

B2: PG16 reverted unmutated ancestor antibody (antibody, V domains shown)
VH: QVQLVESGGGVVQPGRSLRLSCAASGFTFSSYGMHWVRQAPGKGLEWVAVISYDGSNKYYADSVKGRFTISRDNSKNTLYLQMNSLRAEDTAVYYCAREAGGPIWHDDVKYYDFNDGYYYYYYMDVWGKGTTVTVSS
VL: QSALTQPASVSGSPGQSITISCTGTSSDVGSYNLVSWYQQHPGKAPKLMIYEVSKRPSGVSNRFSGSKSGNTASLTISGLQAEDEADYYCCSLTDRSHRIFGGGTKLTVL
notes: also called PG16 RUA; PG16_RUA
In the case of B2, the binding result in [4], in [5], in experiment [6], in experiment [7], in [8] and in experiment [9] was “no binding (tested: 10 ug/ml)” in each case. In addition, the binding result in experiment [10], in [11], in [12], in experiment [13], in experiment [14] and in [15] was “no binding (tested: 10 ug/ml)” in each case. In addition, the binding result in experiment [16], in experiment [17], in experiment [18], in experiment [19] and in experiment [20] was “no binding (tested: 10 ug/ml)” each time.

One may read the EC50 as the concentration giving half of the maximal effect. Low values mean greater potency, high ones weaker potency.
